Literature values in paper PMC3667669.
Like-named read-outs stand apart in the source and are kept apart here.

What was measured:
[1] = target: Cdc42 (Homo sapiens) (UniProt P60953)
[2] = target: Cdc42 (Homo sapiens) (UniProt P60953); remark: listed apart in the source

Cdc42 (Homo sapiens), sequence (P60953 1-188): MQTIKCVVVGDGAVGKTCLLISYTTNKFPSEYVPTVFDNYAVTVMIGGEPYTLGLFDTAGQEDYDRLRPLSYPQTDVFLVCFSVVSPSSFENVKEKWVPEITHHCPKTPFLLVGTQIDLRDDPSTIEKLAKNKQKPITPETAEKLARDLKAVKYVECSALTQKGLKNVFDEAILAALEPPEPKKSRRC
mero221-CBD CBD, sequence (P42768 201-321): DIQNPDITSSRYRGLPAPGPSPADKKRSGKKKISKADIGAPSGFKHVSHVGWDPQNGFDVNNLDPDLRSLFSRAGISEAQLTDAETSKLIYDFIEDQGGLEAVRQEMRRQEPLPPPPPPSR
CBD fragment CBD, sequence (P42768 201-321): as above

Substance	Kd [1]	Kd [2]
CBD fragment CBD (from UniProt P42768)	77 nM	
mero221-CBD CBD (from UniProt P42768)		150 nM
